Here are results for two molecules from paper PMC12090727, “Cell binding, uptake, and infection of influenza A virus using recombinant antibody-based receptors” (Journal of Virology, 2025).

Test [1] addresses T1, hemagglutinin (HA) of A/Netherlands/602/2009 (pH1N1), on virions (Influenza A virus …, UniProt C3PSV2).
T1 construct: also called A/Netherlands/602/09; A/Neth/09
Briefly: flow cytometry on cells. The conditions noted are these: partners not purified. Background: Flow cytometry measures light scatter and fluorescence of single cells or particles in a stream.

Test [2] has as its target T2, HA-hFc probe: H1N1 A/California/04/2009 HA ectodomain fused to human IgG1 Fc (Influenza A virus A/California/04/2009 …, UniProt C3W5S1).
T2 construct: also called HA-probe; HA-human Fc probe; source: High Five insect cells (recombinant baculovirus), purified (HiTrap Protein G); not shown: Fc (human IgG1), C-terminal, kept
Description: flow cytometry on cells. The conditions noted are these: one partner purified.

B1: fTfR-5J8 chimeric antibody-based receptor, stably expressed on A549 Slc35A1 KO cells (scFv, V domains shown)
VH: EVQLVESGPGLVKPSDILSLTCAVSGYSISSNYYWGWIRQPPGKGLEWIGSIYHSGSTYYKPSLESRLGISVDTSKNQFSLKLSFVSAADTAVYYCARHVRSGYPDTAYYFDKWGQGTLVTVSS
VL: SYVLTQPPSVSVAPGETARISCGGNNIGTKVLHWYQQTPGQAPVLVVYDDSDRPSGIPERFSGSNSGNTATLTISRVEVGDEADYYCQVWDISTDQAVFGGGTKLTVL
notes: also called LV-fTfR-5J8; LV-5J8-TfR
As for B1, in test [1], the binding result is on record as “binds”.

B2: Flag-tagged fTfR-5J8 receptor, WT (Flag+) (scFv, V domains shown)
VH: EVQLVESGPGLVKPSDILSLTCAVSGYSISSNYYWGWIRQPPGKGLEWIGSIYHSGSTYYKPSLESRLGISVDTSKNQFSLKLSFVSAADTAVYYCARHVRSGYPDTAYYFDKWGQGTLVTVSS
VL: SYVLTQPPSVSVAPGETARISCGGNNIGTKVLHWYQQTPGQAPVLVVYDDSDRPSGIPERFSGSNSGNTATLTISRVEVGDEADYYCQVWDISTDQAVFGGGTKLTVL
notes: also called WT receptor
Consider B2, for which the binding result in test [2] was “binds”.
